Experimental data: publication PMC9091064

Experiments:
[1] = biological target: SARS-CoV-2 3CLpro Q299A (SARS-CoV-2); experiment: SEC
[2] = biological target: SARS-CoV-2 3CLpro R4A (SARS-CoV-2); experiment: SEC
[3] = biological target: SARS-CoV-2 3CLpro S10C (SARS-CoV-2); experiment: SEC
[4] = biological target: SARS-CoV-2 3CLpro E290Q (SARS-CoV-2); experiment: SEC
[5] = biological target: SARS-CoV-2 3CLpro E14S (SARS-CoV-2); experiment: SEC
[6] = biological target: SARS-CoV-2 3CLpro E290A (SARS-CoV-2); experiment: SEC
[7] = biological target: SARS-CoV-2 3CLpro E290Y (SARS-CoV-2); experiment: SEC
[8] = biological target: SARS-CoV-2 3CLpro E14A (SARS-CoV-2); experiment: SEC
[9] = biological target: SARS-CoV-2 3CLpro S10T (SARS-CoV-2); experiment: SEC
[10] = biological target: SARS-CoV-2 3CLpro Q299E (SARS-CoV-2); experiment: SEC
[11] = biological target: SARS-CoV-2 3CLpro K12A (SARS-CoV-2); experiment: SEC
[12] = biological target: SARS-CoV-2 3CLpro K12A (SARS-CoV-2)
[13] = biological target: SARS-CoV-2 3CLpro E14Q (SARS-CoV-2); experiment: SEC
[14] = biological target: SARS-CoV-2 3CLpro E290D (SARS-CoV-2); experiment: SEC
[15] = biological target: SARS-CoV-2 3CLpro S10A (SARS-CoV-2); experiment: SEC
[16] = biological target: SARS-CoV-2 3CLpro S1A (SARS-CoV-2); experiment: SEC
[17] = biological target: SARS-CoV-2 3CLpro Q299N (SARS-CoV-2); experiment: SEC
[18] = biological target: SARS-CoV-2 3CLpro S139A (SARS-CoV-2); experiment: SEC
[19] = biological target: SARS-CoV-2 3CLpro R4Q (SARS-CoV-2); experiment: SEC
[20] = biological target: SARS-CoV-2 3CLpro E14D (SARS-CoV-2); experiment: SEC

How did the stoichiometry N [1] turn out when SARS-CoV-2 3CLpro Q299A (enzyme) was run?
The stoichiometry N was 2.

SARS-CoV-2 3CLpro R4A (enzyme) was tested. Which stoichiometry N [2] did it give?
The stoichiometry N was 2.

SARS-CoV-2 3CLpro S10C (enzyme) was tested. Which stoichiometry N [3] did it give?
Its stoichiometry N is 2.

For SARS-CoV-2 3CLpro E290Q (enzyme), which stoichiometry N [4] is on record?
The stoichiometry N was 2.

With SARS-CoV-2 3CLpro E14S (enzyme) as the substance, how does the stoichiometry N [5] read?
Its stoichiometry N is 2.

For SARS-CoV-2 3CLpro E290A (enzyme), which stoichiometry N [6] is on record?
Its stoichiometry N is 2.

For SARS-CoV-2 3CLpro E290Y (enzyme), which stoichiometry N [7] is on record?
Its stoichiometry N is 2.

For SARS-CoV-2 3CLpro E14A (enzyme), which stoichiometry N [8] is on record?
Its stoichiometry N is 2.

Which stoichiometry N [9] does the source give for SARS-CoV-2 3CLpro S10T (enzyme) here?
The stoichiometry N was 2.

Which stoichiometry N [10] does the source give for SARS-CoV-2 3CLpro Q299E (enzyme) here?
Its stoichiometry N is 2.

SARS-CoV-2 3CLpro K12A (enzyme) was tested. Which share of the monomer form [11] did it give?
The share of the monomer form was 60%.

And the stoichiometry N [11]?
The stoichiometry N was 2.

And the relative proteolytic activity on the FRET peptide substrate, percent of WT [12]?
Its relative proteolytic activity on the FRET peptide substrate, percent of WT is 60%.

With SARS-CoV-2 3CLpro E14Q (enzyme) as the substance, how does the stoichiometry N [13] read?
Its stoichiometry N is 2.

With SARS-CoV-2 3CLpro E290D (enzyme) as the substance, how does the stoichiometry N [14] read?
Its stoichiometry N is 2.

Which stoichiometry N [15] does the source give for SARS-CoV-2 3CLpro S10A (enzyme) here?
The stoichiometry N was 2.

With SARS-CoV-2 3CLpro S1A (enzyme) as the substance, how does the stoichiometry N [16] read?
The stoichiometry N was 2.

SARS-CoV-2 3CLpro Q299N (enzyme) was tested. Which stoichiometry N [17] did it give?
Its stoichiometry N is 2.

SARS-CoV-2 3CLpro S139A (enzyme) was tested. Which stoichiometry N [18] did it give?
Its stoichiometry N is 2.

SARS-CoV-2 3CLpro R4Q (enzyme) was tested. Which stoichiometry N [19] did it give?
Its stoichiometry N is 2.

SARS-CoV-2 3CLpro E14D (enzyme) was tested. Which stoichiometry N [20] did it give?
Its stoichiometry N is 2.
